Experimental findings from patent publication US11396668B2, “Methods of producing nor-opioid and nal-opioid benzylisoquinoline alkaloids” (priority 2016, dated 2022) are described below.

Positions count from the first letter of the chain named.

Assay [1] relates to tyrosine hydroxylase activity (wild-type RnTyrH). In words: L-DOPA and BH4 levels with antioxidant added to growth media of engineered yeast. The assay is classed as cell-based. The note with it: 2 mM in the media. The text has this:
A yeast strain containing the following mutations to central metabolism (as described in U.S. Provisional Patent Application Ser. No. 61/899,496): ARO4^FBR, ΔZWF1, and GPD-TKL1 promoter replacement and expressing four chromosomally integrated genes from R. norvegicus that generate the cosubstrate tetrahydrobiopterin (pyruvoyl tetrahydropterin synthase, PTPS; sepiapterin reductase, SepR; pterin 4a-carbinolamine dehydratase, PCD; dihydropteridine reductase, QDHPR) as well as wild-type RnTyrH from a low-copy plasmid under the control of the GPD promoter was grown in selective defined media (YNB) lacking tyrosine with 2% galactose and 2 mM ascorbic acid for 96 hours.
The production of L-DOPA was measured in the media via LC-MS/MS in MRM mode with the transition 198 m/z to 152 m/z. […] In addition, the concentration BH4 intermediates were measured with LC-MS/MS in MRM mode with the following transitions: B, 238 m/z to 178 m/z; BH2, 240 m/z to 165 m/z and BH4, 242 m/z to 166 m/z.
Accordingly, FIG. 11A illustrates addition of antioxidants to culture media that improves L-DOPA production by tyrosine hydroxylase in engineered yeast strains and (B) addition of antioxidants to culture media that increase BH4 levels, in accordance with embodiments of the invention. […] The production of L-DOPA was measured in the media via LC-MS/MS in MRM mode with the transition 198 m/z to 152 m/z. […]

The subject of assay [2] is L-DOPA production by tyrosine hydroxylase. In words: L-DOPA production with DHFR coexpressed with wild-type RnTyrH in engineered yeast. In kind it is cell-based. As to conditions: YNB lacking tyrosine, 2% dextrose, 96 hours. The text has this: Dihydrofolate reductase (DHFR) from R. norvegicus was yeast codon optimized, synthesized, and cloned into a low-copy plasmid under the control of a GPD promoter. DHFR was coexpressed with wild-type RnTyrH (low-copy plasmid with a GPD promoter) in a yeast strain containing the following mutations to central metabolism (as described in U.S. Provisional Patent Application Ser. No. 61/899,496): ARO4^FBR, ΔZWF1, and GPD-TKL1 promoter replacement. In addition, the strain expressed four chromosomally integrated genes from R. norvegicus that generate the cosubstrate tetrahydrobiopterin (pyruvoyl tetrahydropterin synthase, PTPS; sepiapterin reductase, SepR; pterin 4a-carbinolamine dehydratase, PCD; dihydropteridine reductase, QDHPR). The strains expressing DHFR and wild-type RnTyrH were grown in selective defined media (YNB) lacking tyrosine with 2% dextrose for 96 hours, and the production of L-DOPA was measured in the media via LC-MS/MS in MRM mode with the transition 198 m/z to 152 m/z. Expression of DHFR with wild-type RnTyrH increases L-DOPA production by 1.8-fold, as illustrated in FIG. 10. As such, FIG. 10 illustrates coexpression of dihydrofolate reductase (DHFR) that improves L-DOPA production by tyrosine hydroxylase in engineered yeast strains, in accordance with embodiments of the invention.

For a further assay, the system named is oxycodone. In words: Oxycodone 3-O-demethylase activity of CODM in crude yeast cell lysate. In kind it is biochemical, yeast strain W303. The note with it: 0.1 mM oxycodone, 10 mM 2-oxoglutarate, 30° C., 3 h, LC-MS. As for the experimental part:
FIG. 29 illustrates the functional expression of CODM, in accordance with embodiments of the invention. In particular, FIG. 29 illustrates the functional expression of CODM with oxycodone 3-O-demethylase activity in yeast. The yeast codon-optimized CODM gene was integrated into the genome of yeast strain W303 and cultured in synthetic complete media for 16 hours. The parent W303 strain was also cultured in synthetic complete media for 16 hours as a no-enzyme control. The cells were pelleted and washed with 1 mL breaking buffer (100 mM Tris-HCl pH 7.5, 10% glycerol, 14 mM 2-mercaptoethanol, lx protease inhibitor). Cells were resuspended in 200 μL breaking buffer and lysed by glass bead disruption. The crude cell lysates were incubated with 10 mM ascorbic acid, 0.5 mM iron(II) sulfate, 0.1 mM oxycodone as substrate and 10 mM 2-oxoglutarate as cosubstrate in a total volume of 100 μL. 4 mM DTT was also added as a reducing agent to keep iron in the Fe^2+ state. The reaction was incubated at 30° C. for 3 h and quenched by diluting it 1:1 in ethanol with 0.1% acetic acid. […] The mass-charge ratio (m/z 302), retention time, and mass spectrum of oxymorphone produced by the yeast strain matched that of a purchased oxymorphone standard (see FIG. 29).

Another assay relates to thebaine. In words: Thebaine N-demethylase activity of BM3 variants in yeast. In kind it is cell-based, yeast strains (CEN.PK2). As to conditions: 100 μM thebaine, 20 hours, buffers pH 5.0-8.5. Here is the method:
(§1) Specifically, BM3 variants 4H9, 7A1, and 8F11 (listed in Table 6) were integrated into the genomes of individual yeast strains (CEN.PK2) and incubated in citric acid-phosphate buffer (pH 5.0, 6.0, 7.0) and Tris-HCl buffer (pH 7.5, 8.0, 8.5) with 100 μM thebaine for 20 hours. A genetic construct which was identical except for the exclusion of the BM3 open reading frame was integrated to generate a no-enzyme control strain. […] The northebaine generated by the yeast strains was quantified by liquid chromatography mass spectrometry. The mass spectrum of northebaine (m/z 298) lacked the m/z 58 product ion consistent with a demethylated nitrogen (see FIG. 27C).
as §1, with “FIG. 27A, FIG. 27B and FIG. 27C illustrate the functional expression of BM3 variants, in accordance with embodiments of the invention. […] FIG. 27B illustrates the functional expression of BM3 variants with thebaine N-demethylase activity in yeast.” for “Specifically,”, “8F11” for “8F11 (listed in Table 6)”

`O=C1O[C@H]([C@@H](O)CO)C(O)=C1O` [ascorbic acid]: in assay [1] (96 hours), the “improvement of L-DOPA production with wild-type RnTyrH” value was 1.8 fold. Further, the “BH4 in the media” value in assay [1] (LC-MS/MS) is “increases BH4 in the media”.

B1: DHFR: Dihydrofolate reductase from R. norvegicus, yeast codon optimized, expressed from low-copy plasmid (protein, UniProt Q920D2 1-187, looked up)
Dihydrofolate reductase: MVRPLNCIVAVSQNMGIGKNGDLPWPLLRNEFKYFQRMTTTSSVEGKQNLVIMGRKTWFSIPEKNRPLKDRINIVLSRELKEPPQGAHFLAKSLDDALKLIEQPELASKVDMVWVVGGSSVYQEAMNQPGHLRLFVTRIMQEFESDTFFPEIDLEKYKLLPEYPGVLSEIQEEKGIKYKFEVYEKKD
On to B1, for which the “increase of L-DOPA production” value in assay [2] amounted to 1.8 fold.

B2: CODM: codeine O-demethylase, yeast codon-optimized gene integrated into yeast strain W303 (protein, listed as Papaver somniferum)
chain: METPILIKLGNGLSIPSVQELAKLTLAEIPSRYTCTGESPLNNIGASVTDDETVPVIDLQNLLSPEPVVGKLELDKLHSACKEWGFFQLVNHGVDALLMDNIKSEIKGFFNLPMNEKTKYGQQDGDFEGFGQPYIESEDQRLDWTEVFSMLSLPLHLRKPHLFPELPLPFRETLESYLSKMKKLSTVVFEMLEKSLQLVEIKGMTDLFEDGLQTMRMNYYPPCPRPELVLGLTSHSDFSGLTILLQLNEVEGLQIRKEERWISIKPLPDAFIVNVGDILEIMTNGIYRSVEHRAVVNSTKERLSIATFHDSKLESEIGPISSLVTPETPALFKRGRYEDILKENLSRKLDGKSFLDYMRM
For B2, the “oxymorphone generated from oxycodone (3-O-demethylation)” value with oxycodone is “detected by LC-MS”.

B3: 4H9: BM3 variant (Bacillus megaterium cytochrome P450) listed in Table 6 (protein)
chain: MTIKEMPQPKTFGELKNLPLLNTDKPVQALMKIADELGEIFKFEAPGRVTRYLSSQRLIKEACDESRFDKNLSQALKFARDFAGDGLVTSWTHEKNWKKAHNILLPSFSQQAMKGYHAMMVDIAVQLVQKWERLNADEHIEVSEDMTRLTLDTIGLCGFNYRFNSFYRDQPHPFIISMVRAADEVMNKLQRANPDDPAYDENKRQFQEDIKVMNDLVDKIIADRKARGEQSDDLLTQMLNGKDPETGEPLDDGNIRYQIIAFLIAGHETTSGLLSFALYFLVKNPHVLQKVAEEAARVLVDPVPSYKQVKQLKYVGMVLNEALRLWPTAPAFSLYAKEDTVLGGEYPLEKGDEVMVLIPQLHRDKTVWGDDVEEFRPERFENPSAIPQHAFKPFGNGQRACIGQQFALHEATLVLGMMLKHFDFEDHTNYELDIKETATLKPKGFVVKAKSKKIPLGGIPSPSTEQSAKKVRKKAENAHNTPLLVLYGSNMGTAEGTARDLADIAMSKGFAPQVATLDSHAGNLPREGAVLIVTASYNGHPPDNAKQFVDWLDQASADEVKGVRYSVFGCGDKNWATTYQKVPAFIDETLAAKGAENIADRGEADASDDFEGTYEEWREHMWSDVAAYFNLDIENSEDNKSTLSLQFVDSAADMPLAKMHGAFSTNVVASKELQQPGSARSTRHLEIELPKEASYQEGDHLGVIPRNYEGIVNRVTARFGLDASQQIRLEAEEEKLAHLPLAKTVSVEELLQYVELQDPVTRTQLRAMAAKTVCPPHKVELEALLEKQAYKEQVLAKRLTMLELLEKYPACEMKFSEFIALLPSIRPRYYSISSSPRVDEKQASITVSVVSGEAWSGYGEYKGIASNYLAELQEGDTITCFISTPQSEFTLPKDPETPLIMVGPGTGVAPFRGFVQARKQLKEQGQSLGEAHLYFGCRSPHEDYLYQEELENAQSEGIITLHTAFSRMPNQPKTYVQHVMEQDGKKLIELLDQGAHFYICGDGSQMAPAVEATLMKSYADVHQVSEADARLWLQQLEEKGRYAKDVWAG
As to B3, the “northebaine production from thebaine (N-demethylation)” value (“northebaine production from thebaine” below) in the assay with thebaine was “produced northebaine at all tested pH levels above 7.0”.

B4: 8F11: BM3 variant (Bacillus megaterium cytochrome P450) listed in Table 6 (protein)
chain: B3 chain with A182L, A261T
In the case of B4, the “northebaine production from thebaine” value with thebaine is reported as “produced northebaine at all tested pH levels above 7.0”.

B5: 7A1: BM3 variant (Bacillus megaterium cytochrome P450) listed in Table 6 (protein)
chain: B3 chain with L76A, M178A, A438L
Regarding B5, the “northebaine production from thebaine” value in the assay on thebaine was “produced northebaine at all tested pH levels above 7.0”.
